Test results published in patent US20250289896A1 (ANALYTICAL BIOSCIENCES SHANGHAI, published 2025).
Each block holds one binder with its values, some of them ahead of it.

Key:
mCCR8 = target: T1, mCCR8 (UniProt P56484 1-353, limits assumed); experiment: flow cytometry, 293T cells with mCCR8
T1 construct: whole, on cells; also called 293T-mCCR8
T1 sequence (looked up): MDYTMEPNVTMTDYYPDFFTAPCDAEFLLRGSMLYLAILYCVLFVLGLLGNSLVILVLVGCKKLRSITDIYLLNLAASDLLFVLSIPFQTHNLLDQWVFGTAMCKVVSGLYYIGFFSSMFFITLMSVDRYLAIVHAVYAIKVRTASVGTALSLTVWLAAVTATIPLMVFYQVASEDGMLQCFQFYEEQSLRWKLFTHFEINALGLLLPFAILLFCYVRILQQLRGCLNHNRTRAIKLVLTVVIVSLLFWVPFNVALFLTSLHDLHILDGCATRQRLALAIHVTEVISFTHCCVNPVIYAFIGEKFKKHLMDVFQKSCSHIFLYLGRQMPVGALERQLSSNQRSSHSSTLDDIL
Procedure: (§1) Binding specificity of the anti-CCR8 antibodies (mAbs) was tested by FACS using several cell lines. […] The binding titration of the anti-CCR8 antibodies to CCR8 transfectants was performed by serial dilution of antibodies. The diluted antibody (50 μl) in flow cytometry buffer (PBS, 0.5% BSA, 1 mM EDTA) was incubated with cells (50 μl) at a concentration of 2 million cells/ml on ice for 30 min. After two washes with flow cytometry buffer, bound antibody was detected with Alexa647-labeled F(ab′)2 fragment goat anti-human IgG (Jackson ImmunoResearch #709-606-149) (1:500 dilution) for 20 minutes on ice. The fluorescence was measured on a Cytek Aurora cytometer, after two washes with flow cytometry buffer. The data were analyzed with GraphPad Prism 8.0 software to determine EC50 values.

cynomolgus macaque CCR8 = target: T2, cynomolgus macaque CCR8 (cynomolgus macaque, UniProt G7NYJ2 1-355); experiment: flow cytometry, 293T cells overexpressing cynomolgus CCR8
T2 construct: whole, on cells; Overexpressed on 293T cells (293T-cCCR8) and Jurkat cells (Jurkat-cynoCCR8); also called cCCR8; cyno CCR8
Procedure: as §1

[1] = target: T3, Human CCR8 (C-C chemokine receptor type 8) (human, UniProt P51685 1-355); experiment: flow cytometry, Hut78 cells (endogenous human CCR8)
T3 construct: overexpressed on HEK293T (293T-hCCR8), Jurkat-hCCR8 and CHEM1-CCR8 cells; also called hCCR8
Procedure: as §1

[2] = target: T3, Human CCR8 (C-C chemokine receptor type …); experiment: flow cytometry, 293T cells overexpressing human CCR8
Procedure: as §1

[3] = target: T3, Human CCR8 (C-C chemokine receptor type …); experiment: flow cytometry on cells carrying human CCR8

T2 sequence (G7NYJ2 entry or part of it): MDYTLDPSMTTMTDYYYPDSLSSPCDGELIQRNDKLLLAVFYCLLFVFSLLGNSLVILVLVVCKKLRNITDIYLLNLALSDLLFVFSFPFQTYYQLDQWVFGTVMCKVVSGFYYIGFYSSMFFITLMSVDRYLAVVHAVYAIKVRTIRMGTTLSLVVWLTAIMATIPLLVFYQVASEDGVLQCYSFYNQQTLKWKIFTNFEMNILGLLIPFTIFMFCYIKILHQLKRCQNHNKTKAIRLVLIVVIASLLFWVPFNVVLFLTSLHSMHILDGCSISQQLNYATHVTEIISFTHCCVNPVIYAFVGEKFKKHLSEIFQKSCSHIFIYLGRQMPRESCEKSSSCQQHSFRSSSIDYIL
T3 sequence (P51685 whole entry): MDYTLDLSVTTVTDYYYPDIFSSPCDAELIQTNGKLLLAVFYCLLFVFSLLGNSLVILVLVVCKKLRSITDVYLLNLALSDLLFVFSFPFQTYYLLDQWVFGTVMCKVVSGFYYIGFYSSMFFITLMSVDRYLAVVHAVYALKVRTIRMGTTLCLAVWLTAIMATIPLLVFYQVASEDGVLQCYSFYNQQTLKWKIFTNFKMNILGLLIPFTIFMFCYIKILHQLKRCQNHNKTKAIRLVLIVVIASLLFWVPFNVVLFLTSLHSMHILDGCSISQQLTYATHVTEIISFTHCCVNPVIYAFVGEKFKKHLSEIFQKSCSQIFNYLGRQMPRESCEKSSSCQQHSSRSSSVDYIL

B2: ABC816 (antibody, human IgG1, kappa, V domains shown)
VH: AVQLVESGGGLVQPKESLKISCAASGFTFSNAAMYWVRQAPGKGLEWVARIRTKPNNYATYYADSVKGRFTISRDDSKSMVYLQMDNLKTEDTAMYYCTAAVYSSYGYFDYWGQGVMVTVSS
VL: DIQMTQSPASLSASLEEIVTITCQASQNNGNWLAWYQQKPGKSPQLLIYGTTNLADGVPSRFSGSRSGTQYSLKISRLQVEDIGIYYCQQASSTPWTFGGGTKLELKR
EC50 (mCCR8): 0.133 nM
binding result (cynomolgus macaque CCR8): no binding
binding result [1]: no binding

B3: ABC078 (antibody, V domains shown)
VH: QVQLVQSGAEVKKPGASVKVSCKASGYTFTDSEMHWVRQATGQGLEWMGAIQPETGGTAYNQKFKARVTMTRDTSISTAYMELSSLRSEDTAVYYCARRRRNFDYWGQGTLVTVSS
VL: DIVMTQTPLSLSVTPGQPASISCRSSQSLFHSSGNTYLHWYLQKPGQPPQLLIYKVSNRFSGVPDRFSGSGSGTDFTLKISRVEAEDVGVYYCSQSTHVPFTFGQGTKLEIKR
EC50 [2]: 0.0282 nM
binding result (mCCR8): no binding
binding result (cynomolgus macaque CCR8): no binding
EC50 [1]: 0.648 nM

B4: ABC137-H2.hu12.IgG1.SDIE (antibody, V domains shown)
VH: EVQLVESGGGLVQPGGSLRLSCAASGFPFNTFAMNWVRQAPGKGLEWLARIRSKSNNYATYYADSVKDRFTISRDNAKRSLYLQMNSLRAEDTAVYYCVRGKENNYGYAMDYWGQGTTVTVSS
VL: DIVMTQSPLSLPVTPGEPASISCRSSKSLLHSNGNTYLYWFLQKPGQSPQLLIYRMSNLASGVPDRFSGSGSGTDFTLKISRVEAEDVGVYYCMQHVEYPFTFGGGTKLEIKR
notes: Parental clone ABC025.H2G.SDIE; IgG1 with SDIE mutations
binding result [3]: binds

B5: ABC049-B1.hu12.IgG1.SDIE (antibody, V domains shown)
VH: EVQLVESGGGLVQPGGSLKLSCAASGFTFNTYAMNWVRQASGKGLEWVARIRSKSNNYATYYADSVKDRFTISRDDSKNTLYLQMNSLKTEDTAVYYCVREVRRDYALDQWGQGTMVTVSS
VL: DIVMTQSPLSLPVTPGEPASISCRSSKSLLHSQGNTYLYWFLQKPGQSPQLLIYRMSNLASGVPDRFSGSGSGTDFTLKISRVEAEDVGVYYCMQHVEYPFTFGGGTKLEIKR
notes: IgG1 with SDIE mutations, by its name
binding result [3]: binds

B6: H2B (antibody, human IgG1, kappa, V domains shown)
VH: EVQLVESGGGLVQPGGSLRLSCAASGFPFNTFAMNWVRQAPGKGLEWLARIRSKSNNYATYYADSVKDRFTISRDNAKRSLYLQMNSLRAEDTAVYYCVRGKENNYGYAMDYWGQGTTVTVSS
VL: DIVMTQSPLSLPVTPGEPASISCRSSQSLLHSNGNTYLYWFLQKPGQSPQLLIYRMSNLASGVPDRFSGSGSGTDFTLKISRVEAEDVGVYYCMQHLEYPFTFGQGTKLEIKR
binding result [3]: binds

B7: H2I (antibody, human IgG1, kappa, V domains shown)
VH: EVQLVESGGGLVQPGGSLRLSCAASGFPFNTFAMNWVRQAPGKGLEWLARIRSKSNNYATYYADSVKDRFTISRDNARRSLYLQMNSLRAEDTAVYYCVRGKENNYGYAMDYWGQGTTVTVSS
VL: DIVMTQSPLSLPVTPGEPASISCRSSQSLLHSNANTYLYWFLQKPGQSPQLLIYRMSNLASGVPDRFSGSGSGTDFTLKISRVEAEDVGVYYCMQHLEYPFTFGQGTKLEIKR
binding result [3]: binds

B8: H2A (antibody, human IgG1, kappa, V domains shown)
VH: EVQLVESGGGLVQPGGSLRLSCAASGFPFNTFAMNWVRQAPGKGLEWLARIRSKSNNYATYYADSVKDRFTISRDNAKNSLYLQMNSLRAEDTAVYYCVRGKENNYGYAMDYWGQGTTVTVSS
VL: DIVMTQSPLSLPVTPGEPASISCRSSQSLLHSNGNTYLYWFLQKPGQSPQLLIYRMSNLASGVPDRFSGSGSGTDFTLKISRVEAEDVGVYYCMQHLEYPFTFGQGTKLEIKR
binding result [3]: binds

B9: ABC051-B1.hu14.IgG1.SDIE (antibody, V domains shown)
VH: EVQLVESGGGLVQPGGSLKLSCAASGFTFNTYAMNWVRQASGKGLEWVARIRSKSNNYATYYADSVKDRFTISRDDSKNTLYLQMNSLKTEDTAVYYCVREVRRDYALDQWGQGTMVTVSS
VL: DIVMTQSPLSLPVTPGEPASISCRSSKSLLHSNANTYLYWFLQKPGQSPQLLIYRMSNLASGVPDRFSGSGSGTDFTLKISRVEAEDVGVYYCMQHVEYPFTFGGGTKLEIKR
notes: as for B5
binding result [3]: binds

B13: ABC820 (antibody, human IgG1, kappa, V domains shown)
VH: EVQLVESGGGLVQPGRSLKLSCAASGFTFSDYYMAWVRQAPKKGLEWVASISYEGRSTYYGDSVKGRFTISRDDEKSILYLQMSGPRSEDTATYYCARQDLYYGRNPSWFLDFWGPGTMVTVSS
VL: IVMTQSPTSMSISVGGRVTMNCKASQNVGSNVDWFQQKTGQSPKLLIYKTTSRYTGVPDRFTGSGSKTDFTFTISNMQAEDLAVYYCLQSNSFPYTFGAGTKLELKR
EC50 [2]: 0.103 nM
binding result (mCCR8): no binding
EC50 (cynomolgus macaque CCR8): 0.09 nM
EC50 [1]: 19.4 nM

B14: ABC814 (antibody, human IgG1, kappa, V domains shown)
VH: EVQLVESGGGLVQPGRSLKLSCVASGFTFSDYYMAWVRQAPKKGLEWVASISYEGRSTYYGDSVKGRFTISRDDAKSTLYLQMNSLRSEDTATYYCARQDLYYGHKSYWYLDFWGPGTMVTVSS
VL: DIVMTQSPTSMSISVGDRVTMNCKASQNVGSNVDWYQQKPGQSPKLLIYKTSSRSTGVPDRFTGSGSRTDFTFTITNMQAEDLAVYYCMQSNSYPFTFGAGTKLELKR
EC50 [2]: 0.0828 nM
binding result (mCCR8): no binding
EC50 (cynomolgus macaque CCR8): 0.101 nM
EC50 [1]: 11.6 nM

Other lines, results leading:

binding result (mCCR8): no binding
EC50 (cynomolgus macaque CCR8): 0.26 nM
binding result [1]: no binding
B1: ABC523 (antibody, human IgG1, kappa, V domains shown)
VH: EVKLVESGGGLVQPGNSLTLSCVASGFTFSNYGMHWIRQAPKKGLEWIAMIYSDSSKMFYTDTVKGRFTISRDNSKNTLYLEMNSLRSEDTAMYYCAARDYGYKGAHYYVMDAWGQGASVTVSS
VL: DIQMTQSPSFLSASVGDRVTIICKSSQNINRYLNWYQQKLGEAPKLLIYNANNLQTGIPSRFSGGGSGTDFTFTIGSLRPEDVATYFCLQHKSWPYTFGPGTKLELKR

binding result [3]: binds
B10: ABC050-B1.hu13.IgG1.SDIE (antibody, V domains shown)
VH: EVQLVESGGGLVQPGGSLKLSCAASGFTFNTYAMNWVRQASGKGLEWVARIRSKSNNYATYYADSVKDRFTISRDDSKNTLYLQMNSLKTEDTAVYYCVREVRRDYALDQWGQGTMVTVSS
VL: DIVMTQSPLSLPVTPGEPASISCRSSKSLLHSSGNTYLYWFLQKPGQSPQLLIYRMSNLASGVPDRFSGSGSGTDFTLKISRVEAEDVGVYYCMQHVEYPFTFGGGTKLEIKR
notes: as for B5

binding result [3]: binds
B11: H2C (antibody, human IgG1, kappa, V domains shown)
VH: EVQLVESGGGLVQPGGSLRLSCAASGFPFNTFAMNWVRQAPGKGLEWLARIRSKSNNYATYYADSVKDRFTISRDNARRSLYLQMNSLRAEDTAVYYCVRGKENNYGYAMDYWGQGTTVTVSS
VL: DIVMTQSPLSLPVTPGEPASISCRSSQSLLHSNGNTYLYWFLQKPGQSPQLLIYRMSNLASGVPDRFSGSGSGTDFTLKISRVEAEDVGVYYCMQHLEYPFTFGQGTKLEIKR

binding result (mCCR8): no binding
EC50 (cynomolgus macaque CCR8): 0.25 nM
binding result [1]: no binding
B12: ABC519 (antibody, human IgG1, kappa, V domains shown)
VH: EVHLVESGGGFVRPGRSMKLSCAASGFPFSFYGMAWVLQTPTKGLEWVASISYDGSDTYYRDSVKGRFAISRDNAKNTLYLQMESLRSEDTATFYCAKTSGYGSFDYWGQGTLVTVSS
VL: DIVMTQSPVSLPVSFGGQASISCRSSRSLVHRNGDTYLHWYLQKPGQSPQLLIYRVSNRFAGVPDRFSGSGSGTDFTLKISRVESEDLGLYYCLQGTHLPPTFGSGTKLEIKR
